The supplement of paper PMC9112550, “Optimization of the antimicrobial peptide Bac7 by deep mutational scanning” (BMC Biology, 2022)
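Note: peptides expressed intracellularly from a pBAD plasmid library in pooled LB shake-flask culture, induced with 0.3% L-arabinose, DNA abundance read by NGS, three biological replicates, DESeq2 with apeglm shrinkage.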

These sequences were tested on Escherichia coli TOP10 (assay: shrunken log2 fold change of peptide-encoding DNA abundance (4.5 h post-induction vs induction); higher = less antimicrobial activity (less host growth inhibition)). Settings: time post-induction: 4.5 h; library: site-saturation at positions 5, 18, 19, 20.
In the case of RRIRQRPPRLPRPRPRPKRMPRP, the “shrunken log2 fold change” value is reported as -0.0373. In the case of RRIRSRPPRLPRPRPRPGNMPRP, the “shrunken log2 fold change” value is reported as -0.12. In the case of RRIRWRPPRLPRPRPRPECDPRP, the “shrunken log2 fold change” value is reported as 1.93. RRIRLRPPRLPRPRPRPVMLPRP was tested, and the “shrunken log2 fold change” value was -0.495. For RRIRGRPPRLPRPRPRPWDTPRP, the “shrunken log2 fold change” value was 0.194. For RRIRERPPRLPRPRPRPHPEPRP, the “shrunken log2 fold change” value was -0.073. With RRIRLRPPRLPRPRPRPDNCPRP the “shrunken log2 fold change” value was -0.0891. For RRIRTRPPRLPRPRPRPCQEPRP, the “shrunken log2 fold change” value was -0.0218. RRIRWRPPRLPRPRPRPFPVPRP was tested, and the “shrunken log2 fold change” value was -0.0948. With RRIRSRPPRLPRPRPRPFVCPRP the “shrunken log2 fold change” value was -0.326. With RRIRFRPPRLPRPRPRPVYTPRP the “shrunken log2 fold change” value was -1.09. With RRIRYRPPRLPRPRPRPPGYPRP the “shrunken log2 fold change” value was 1.43. For RRIRHRPPRLPRPRPRPTQGPRP, the “shrunken log2 fold change” value was 0.318. RRIRFRPPRLPRPRPRPWPYPRP was tested, and the “shrunken log2 fold change” value was 0.0261. For RRIRTRPPRLPRPRPRPMRHPRP, the “shrunken log2 fold change” value was 0.00372. With RRIRERPPRLPRPRPRPFKIPRP the “shrunken log2 fold change” value was -0.0307. RRIRNRPPRLPRPRPRPAKNPRP was tested, and the “shrunken log2 fold change” value was 0.0221. RRIRDRPPRLPRPRPRPGDCPRP was tested, and the “shrunken log2 fold change” value was 0.0646. With RRIRPRPPRLPRPRPRPQMPPRP the “shrunken log2 fold change” value was -0.451. In the case of RRIRWRPPRLPRPRPRPFYYPRP, the “shrunken log2 fold change” value is reported as -0.138. For RRIRGRPPRLPRPRPRPMHDPRP, the “shrunken log2 fold change” value was 0.361. For RRIRFRPPRLPRPRPRPKNNPRP, the “shrunken log2 fold change” value was -0.504. In the case of RRIRRRPPRLPRPRPRPYFGPRP, the “shrunken log2 fold change” value is reported as -0.163. For RRIRQRPPRLPRPRPRPHGVPRP, the “shrunken log2 fold change” value was -0.226. With RRIRTRPPRLPRPRPRPNDPPRP the “shrunken log2 fold change” value was -0.149. In the case of RRIRGRPPRLPRPRPRPPNLPRP, the “shrunken log2 fold change” value is reported as 0.463. RRIRFRPPRLPRPRPRPYWYPRP was tested, and the “shrunken log2 fold change” value was -0.675. For RRIRLRPPRLPRPRPRPKYPPRP, the “shrunken log2 fold change” value was 0.0464. In the case of RRIRWRPPRLPRPRPRPLKAPRP, the “shrunken log2 fold change” value is reported as 0.749. For RRIRKRPPRLPRPRPRPPMMPRP, the “shrunken log2 fold change” value was 0.587. In the case of RRIRPRPPRLPRPRPRPGMKPRP, the “shrunken log2 fold change” value is reported as -0.257. For RRIRQRPPRLPRPRPRPPVVPRP, the “shrunken log2 fold change” value was 0.126. For RRIRNRPPRLPRPRPRPIDKPRP, the “shrunken log2 fold change” value was -0.0756. With RRIRPRPPRLPRPRPRPNQIPRP the “shrunken log2 fold change” value was 0.0623. With RRIRQRPPRLPRPRPRPHMPPRP the “shrunken log2 fold change” value was -0.0493. In the case of RRIRMRPPRLPRPRPRPKLEPRP, the “shrunken log2 fold change” value is reported as 1.14. With RRIRARPPRLPRPRPRPNRPPRP the “shrunken log2 fold change” value was -0.111. With RRIRIRPPRLPRPRPRPGSEPRP the “shrunken log2 fold change” value was -0.187. For RRIRDRPPRLPRPRPRPRWSPRP, the “shrunken log2 fold change” value was 0.264. With RRIRCRPPRLPRPRPRPRVKPRP the “shrunken log2 fold change” value was 0.196. In the case of RRIRVRPPRLPRPRPRPDATPRP, the “shrunken log2 fold change” value is reported as 0.299. For RRIRHRPPRLPRPRPRPVDSPRP, the “shrunken log2 fold change” value was -0.175. For RRIRMRPPRLPRPRPRPCAWPRP, the “shrunken log2 fold change” value was 0.513. In the case of RRIRFRPPRLPRPRPRPIYHPRP, the “shrunken log2 fold change” value is reported as -0.701. With RRIRKRPPRLPRPRPRPNYFPRP the “shrunken log2 fold change” value was -0.303. In the case of RRIRLRPPRLPRPRPRPLCHPRP, the “shrunken log2 fold change” value is reported as -0.253. In the case of RRIRNRPPRLPRPRPRPEAYPRP, the “shrunken log2 fold change” value is reported as 0.0274. With RRIRDRPPRLPRPRPRPNKIPRP the “shrunken log2 fold change” value was -0.457. In the case of RRIRWRPPRLPRPRPRPWKDPRP, the “shrunken log2 fold change” value is reported as -0.000687. With RRIRARPPRLPRPRPRPNDQPRP the “shrunken log2 fold change” value was 0.226. In the case of RRIRQRPPRLPRPRPRPLHAPRP, the “shrunken log2 fold change” value is reported as 0.164. In the case of RRIRMRPPRLPRPRPRPFERPRP, the “shrunken log2 fold change” value is reported as 0.122. With RRIRNRPPRLPRPRPRPKQDPRP the “shrunken log2 fold change” value was -0.0415. In the case of RRIRIRPPRLPRPRPRPYIMPRP, the “shrunken log2 fold change” value is reported as -1.15. With RRIRQRPPRLPRPRPRPVNEPRP the “shrunken log2 fold change” value was -0.325. In the case of RRIRRRPPRLPRPRPRPESFPRP, the “shrunken log2 fold change” value is reported as 0.0965. RRIRRRPPRLPRPRPRPTHTPRP was tested, and the “shrunken log2 fold change” value was 0.66. For RRIRYRPPRLPRPRPRPWLLPRP, the “shrunken log2 fold change” value was -1.51. With RRIRRRPPRLPRPRPRPFCWPRP the “shrunken log2 fold change” value was 0.45. With RRIRSRPPRLPRPRPRPFDQPRP the “shrunken log2 fold change” value was -0.256. With RRIRPRPPRLPRPRPRPCRAPRP the “shrunken log2 fold change” value was 0.0858. In the case of RRIRKRPPRLPRPRPRPTDRPRP, the “shrunken log2 fold change” value is reported as 0.209. RRIRMRPPRLPRPRPRPMMCPRP was tested, and the “shrunken log2 fold change” value was -0.0746. With RRIRGRPPRLPRPRPRPNGSPRP the “shrunken log2 fold change” value was -0.0904. With RRIRRRPPRLPRPRPRPGCDPRP the “shrunken log2 fold change” value was 0.456. RRIRTRPPRLPRPRPRPVYFPRP was tested, and the “shrunken log2 fold change” value was -0.558. In the case of RRIRHRPPRLPRPRPRPAGQPRP, the “shrunken log2 fold change” value is reported as -0.00146. For RRIRGRPPRLPRPRPRPLLWPRP, the “shrunken log2 fold change” value was 0.896. RRIRFRPPRLPRPRPRPYQSPRP was tested, and the “shrunken log2 fold change” value was -0.00405. For RRIRGRPPRLPRPRPRPEDNPRP, the “shrunken log2 fold change” value was 0.892. In the case of RRIRNRPPRLPRPRPRPDTVPRP, the “shrunken log2 fold change” value is reported as -0.0521. RRIRMRPPRLPRPRPRPRLRPRP was tested, and the “shrunken log2 fold change” value was 1.17. With RRIRNRPPRLPRPRPRPPWVPRP the “shrunken log2 fold change” value was -0.0522. RRIRMRPPRLPRPRPRPMIAPRP was tested, and the “shrunken log2 fold change” value was 0.0314. With RRIRMRPPRLPRPRPRPEIPPRP the “shrunken log2 fold change” value was 0.497. With RRIRWRPPRLPRPRPRPLHVPRP the “shrunken log2 fold change” value was 0.407. For RRIRARPPRLPRPRPRPVIMPRP, the “shrunken log2 fold change” value was -0.42. In the case of RRIRHRPPRLPRPRPRPHGWPRP, the “shrunken log2 fold change” value is reported as 0.0177. RRIRNRPPRLPRPRPRPGGHPRP was tested, and the “shrunken log2 fold change” value was -0.102. RRIRSRPPRLPRPRPRPVTKPRP was tested, and the “shrunken log2 fold change” value was -0.00403. RRIRLRPPRLPRPRPRPSLGPRP was tested, and the “shrunken log2 fold change” value was -0.213. RRIRPRPPRLPRPRPRPQTTPRP was tested, and the “shrunken log2 fold change” value was -0.161. With RRIRCRPPRLPRPRPRPHSSPRP the “shrunken log2 fold change” value was -0.823. In the case of RRIRWRPPRLPRPRPRPTTAPRP, the “shrunken log2 fold change” value is reported as 0.432. In the case of RRIRQRPPRLPRPRPRPFVQPRP, the “shrunken log2 fold change” value is reported as -0.0936. In the case of RRIRFRPPRLPRPRPRPKDMPRP, the “shrunken log2 fold change” value is reported as -0.0249. With RRIRQRPPRLPRPRPRPWAAPRP the “shrunken log2 fold change” value was 0.0922. For RRIRWRPPRLPRPRPRPDKKPRP, the “shrunken log2 fold change” value was -0.0507. For RRIRMRPPRLPRPRPRPLFGPRP, the “shrunken log2 fold change” value was 0.232. RRIRCRPPRLPRPRPRPEKFPRP was tested, and the “shrunken log2 fold change” value was 0.0607. In the case of RRIRVRPPRLPRPRPRPGIHPRP, the “shrunken log2 fold change” value is reported as -0.118. For RRIRIRPPRLPRPRPRPDFNPRP, the “shrunken log2 fold change” value was -0.701. In the case of RRIRYRPPRLPRPRPRPMVFPRP, the “shrunken log2 fold change” value is reported as -0.00776. In the case of RRIRARPPRLPRPRPRPDRGPRP, the “shrunken log2 fold change” value is reported as -0.283. RRIRFRPPRLPRPRPRPKGWPRP was tested, and the “shrunken log2 fold change” value was 0.589. With RRIRNRPPRLPRPRPRPGDTPRP the “shrunken log2 fold change” value was -0.0217. RRIRDRPPRLPRPRPRPMNAPRP was tested, and the “shrunken log2 fold change” value was -0.0396. With RRIRTRPPRLPRPRPRPLGAPRP the “shrunken log2 fold change” value was 0.0945. For RRIRCRPPRLPRPRPRPMCCPRP, the “shrunken log2 fold change” value was -0.038. RRIRKRPPRLPRPRPRPPKKPRP was tested, and the “shrunken log2 fold change” value was 0.0439. RRIRVRPPRLPRPRPRPVLIPRP was tested, and the “shrunken log2 fold change” value was -0.186. In the case of RRIRIRPPRLPRPRPRPLNKPRP, the “shrunken log2 fold change” value is reported as -0.398. In the case of RRIRMRPPRLPRPRPRPGNHPRP, the “shrunken log2 fold change” value is reported as -0.0526. For RRIRTRPPRLPRPRPRPPKDPRP, the “shrunken log2 fold change” value was -0.187. In the case of RRIRIRPPRLPRPRPRPCNLPRP, the “shrunken log2 fold change” value is reported as -0.877. For RRIRVRPPRLPRPRPRPTKQPRP, the “shrunken log2 fold change” value was -0.0322. RRIRYRPPRLPRPRPRPFDQPRP was tested, and the “shrunken log2 fold change” value was -0.401. With RRIRRRPPRLPRPRPRPEYCPRP the “shrunken log2 fold change” value was 0.0246. With RRIRNRPPRLPRPRPRPPIWPRP the “shrunken log2 fold change” value was -0.129.
